Results published in patent publication US8691960B2, “Oxidoreductases for enantioselective reactions” (Duke University, priority 2012, dated 2014).
Like-named read-outs stand apart in the source and are kept apart here. Blank lines part the entries; values can stand above or below the molecule they belong to.

Key:
[1] = literature; cited from earlier work
[2] = NADH oxidation with 2-oxoadipate plus CO2 added as NaHCO3 (reductive carboxylation); assay type: biochemical
Method: (§1) NADH, 2-oxoadipate, 2-oxoglutarate, 2-heptandioate, and MgCl2 were from Sigma. Standard reaction mixes contained 15 mM 2-oxoadipate, 100 μM NADH, and a reaction buffer with final concentrations of 20 mM MgCl2 and 500 mM HEPES, pH 7.3. NADH oxidation was monitored by the decrease in fluorescence with excitation of 340 nm and emission of 450 nm on a PolarSTAR Optima plate reader (BMG Labtech). Fluorescence monitored reactions were carried out in 10-μL volumes in a 384-well black microplate (Greiner 788076) covered with clear optical film. The levels of fluorescence were converted to NADH concentrations based on standards of NADH in reaction buffer containing BSA. Reactions with high amounts of NADH were monitored by the UV absorbance of NADH at 340 nm in 40-μL reaction volumes in clear 96-well plates.
(§2) Reaction rates are NADH oxidation per unit time per unit of purified enzyme or crude lysate and 1 Unit (U) is 1 μmolNADH min^−1 mgenzyme^−1. Rates are initial rates calculated by least squares linear regression on the first 10 minutes of the reaction. For KM determination, concentrations of substrate/cofactors at least 5×-higher than the KM were used, while the species of interest was varied in concentration; substrate/cofactor concentrations: 500 μM NADH; 15 mM 2-oxoadipate; 20 mM MgCl2. Reported α-hydroxyadipate (2-hydroxy adpic acid) Vmax values were obtained from 2-oxoadipate KM determination experiments. Michaelis-Menten KM and Vmax parameters were estimated by fitting data to a curve using nonlinear regression in GraphPad Prism 5.0 (GraphPad Software, La Jolla, Calif.).

[3] = Enantiospecific LC-MS/MS quantification of (R)- and (S)-2-hydroxyadipate product; assay type: biochemical; conditions: for concentration of (R)-2-hydroxyadipate after 10 h: ScHIDH, initially 2 mM NADH and 2 mM 2-oxoadipate
Method: Quantitative, enantiospecific LC-MS/MS was performed based on the procedure described for 2-hydroxyglutarate. Jin et al., PLoS one 6, e16812: 1-8 (2011); Struys, et al., Clin. Chem. 50: 1391-1395 (2004). To 20 μL of reaction mix, 2 μL of 130 μg/mL of a racemic mixture of [3,3,4,4-^2H4]-2-hydroxyglutarate (internal standard) in water was added and the mixture dried by vacuum centrifuge (50° C., 15 min). The dry residue was treated with 50 mg/mL freshly prepared diacetyl-L-tartaric anhydride (Sigma) in dichloromethane/glacial acetic acid (4:1 by volume) and heated (75° C., 30 min). After drying (50° C., 15 min) the residue was dissolved in 100 μL of LC mobile phase A (see below) for analysis. An Agilent 1200 series HPLC (Santa Clara, Calif.) was used for liquid chromatography (LC) and a Sciex/Applied Biosystems API 3200 QTrap (Carlsbad, Calif.) was used for triple quadrupole mass spectrometry (MS/MS). Mobile phase A: water, 3% acetonitrile, 280 μL ammonium hydroxide (^˜25%), pH adjusted to 3.6 with formic acid (^˜98%). Mobile phase B: methanol. Analytical column: Kinetex C-18, 150×4.6 mm, 2.6 μm, and SafeGuard C-18 4×3 mm guard-column from Phenomenex (Torrance, Calif.). Column temperature: 45° C. Elution gradient at 1 mL/min flow rate: 0-1 min 0% B, 1-2 min 0-100% B, 2-3.5 min 100% B, 3.5-4 min 100-0% B, 4-10 min 0% B. Injection volume: 10 μL. Q1/Q3 (m/z) transitions were monitored: 377/161, 2-hydroxyadipate (2HA) and 367/151, [3,3,4,4-^2H4]-2-hydroxyglutarate (2HG-d4). To calibrate, 0, 0.16, 0.54, 1.8, 6, and 20 μg/mL 2-hydroxyadipate (Sigma), synthesized as described above, was analyzed in reaction buffer. (R)- and (S)-enantiomers were discriminated based on time of elution from the HPLC column, using the relative elution time for (R)-2-hydroxyglutarate compared to the racemic mixture of 2-hydroxyglutarate described previously to identify the (R)-2-hydroxyadipate enantiomer. Jin et al., PLoS one 6, e16812: 1-8 (2011). Standards were analyzed alongside experimental samples. Accuracy acceptance criteria were 85% for all but the lowest level (0.16 μg/mL, 80%).

[4] = NADH oxidation rate of purified HIDH mutants with 2-oxoglutarate as substrate; assay type: biochemical; conditions: ScHIDH-R143H
Method: as §1
(§3) Reaction rates are NADH oxidation per unit time per unit of purified enzyme or crude lysate and 1 Unit (U) is 1 μmolNADH min^−1 mgenzyme^−1. Rates are initial rates calculated by least squares linear regression on the first 10 minutes of the reaction. For KM determination, concentrations of substrate/cofactors at least 5×-higher than the KM were used, while the species of interest was varied in concentration; substrate/cofactor concentrations: 500 μM NADH; 15 mM 2-oxoadipate; 20 mM MgCl2. […]

[5] = NADH oxidation rate of purified HIDH enzymes with 2-oxoadipate (fluorescence / UV 340 nm); assay type: biochemical; conditions: for rate of NADH oxidation in the presence of 2-oxoadipate: 15 mM 2-oxoadipate, 100 μM NADH, 0.4 μg purified enzyme
Method: as §1, §2
(§4) Assays were performed with 40 ng/μL enzyme, 15 mM 2-oxoadipate, 100 μM NADH, 20 mM MgCl2 and 100 mM HEPES, pH 7.3 in 10 or 20 μL volumes in 384-well black microplates. NADH concentration was monitored by the decrease in fluorescence (excitation wavelength: 340 nm; emission wavelength: 450 nm) on a fluorescent plate reader. The fluorescence intensities were converted to NADH concentrations based on NADH standards. Reactions with high amounts of NADH (>300 μM) were monitored by the UV absorbance of NADH at 340 nm in a 40 μL reaction volume in a clear 96-well plate on the same plate reader. Reactions with ScHIDH were carried out at 25° C. and reactions with TtHIDH were carried out at 45° C. Reported rates are initial rates from the first 10 minutes of reaction. For KM determination, concentrations of substrate at least 5×-higher than the KM were used (for NADH, 500 μM; for 2-oxoadipate, 15 mM) while the substrate of interest was varied in concentration. KM and Vmax were estimated by fitting data to equation (1) using nonlinear regression, where x is substrate concentration and y is the rate. y=Vmax·x/KM+x (1) Rate data for ScHIDH-R143C, -R143H, and -R143K are summarized in Table 3.

[6] = Magnesium dependence of ScHIDH-R143H; assay type: biochemical
Method: as §4
ScHIDH-R143H activity was assayed at various MgCl2 concentrations under the standard reaction conditions described in Example 11. The rate is relative to the rate at 20 mM MgCl2. […]

[7] = Kinetic characterization of ScHIDH mutants: KM 2-oxoadipate and Vmax; assay type: biochemical
Method: as §2, §4

[8] = Kinetic characterization of ScHIDH mutants: KM NADH; assay type: biochemical
Method: as §2, §4

[9] = pH dependence of ScHIDH-R143H; assay type: biochemical
Method: as §4
ScHIDH-R143H activity was assayed in HEPES buffer at various pH under the standard reaction conditions described in Example 11, above. The rate is relative to the rate at pH 7.4. […]

[10] = NADH oxidation rate of purified ScHIDH-R143H with 2-oxoheptanedioic acid as substrate; assay type: biochemical
Method: as §1, §3

[11] = ScHIDH, literature; read-out: KM,HCO3, previous observation; cited from earlier work
[12] = literature (Lin et al. 2007); cited from earlier work

B1: TtHIDH-WT: wild type Thermus thermophilus homoisocitrate dehydrogenase (protein, listed as Thermus thermophilus)
chain: MAYRICLIEGDGIGHEVIPAARRVLEATGLPLEFVEAEAGWETFERRGTSVPEETVEKILSCHATLFGAATSPTRKVPGFFGAIRYLRRRLDLYANVRPAKSRPVPGSRPGVDLVIVRENTEGLYVEQERRYLDVAIADAVISKKASERIGRAALRIAEGRPRKTLHIAHKANVLPLTQGLFLDTVKEVAKDFPLVNVQDIIVDNCAMQLVMRPERFDVIVTTNLLGDILSDLAAGLVGGLGLAPSGNIGDTTAVFEPVHGSAPDIAGKGIANPTAAILSAAMMLDYLGEKEAAKRVEKAVDLVLERGPRTPDLGGDATTEAFTEAVVEALKSL
efficiency for 2-oxoglutarate relative to 2-oxoadipate [1]: 20 times | rate of NADH consumption with NaHCO3 added ([2]; TtHIDH, 2-oxoadipate and NADH, CO2 added as NaHCO3): 0.14±0.022 U | increase of (R)-2-hydroxyadipate concentration after 2 h ([3]; TtHIDH, 100 μM NADH, 15 mM 2-oxoadipate, 45° C., 2 h): not observed

rate of NADH oxidation in the presence of 2-oxoadipate ([5]; ScHIDH): 0.0096±0.000014 U | decrease of NADH concentration after 10 h compared to a buffer control ([5]; ScHIDH, initially 2 mM NADH and 2 mM 2-oxoadipate, 10 h): 0.62 mM | NADH oxidation rate, reaction containing no substrate ([5]; ScHIDH-R143H, no substrate): < 0.001 U
B2: ScHIDH-R143H: Saccharomyces cerevisiae homoisocitrate dehydrogenase R143H mutant, an (R)-2-hydroxyadipate dehydrogenase (protein)
chain: MFRSVATRLSACRGLASNAARKSLTIGLIPGDGIGKEVIPAGKQVLENLNSKHGLSFNFIDLYAGFQTFQETGKALPDETVKVLKEQCQGALFGAVQSPTTKVEGYSSPIVALRREMGLFANVRPVKSVEGEKGKPIDMVIVHENTEDLYIKIEKTYIDKATGTRVADATKRISEIATRRIATIALDIALKRLQTRGQATLTVTHKSNVLSQSDGLFREICKEVYESNKDKYGQIKYNEQIVDSMVYRLFREPQCFDVIVAPNLYGDILSDGAAALVGSLGVVPSANVGPEIVIGEPCHGSAPDIAGKGIANPIATIRSTALMLEFLGHNEAAQDIYKAVDANLREGSIKTPDLGGKASTQQVVDDVLSRL
modifications: ScHIDH R143H polypeptide
notes: Saccharomyces cerevisiae homoisocitrate dehydrogenase R143H mutant, an (R)-2-hydroxyadipate dehydrogenase
NADH oxidation rate in the presence of 15 mM 2-oxoglutarate [4]: < 0.001 U | Km ([6]; Table 3, read-out: KM MgCl2): 1200 µM | Km ([6]; various MgCl2 concentrations, standard conditions, read-out: KM for MgCl2): 1100 µM | Km ([7]; Table 3, 40 ng/μL enzyme, 500 μM NADH, 20 mM MgCl2, pH 7.3, 25° C.): 2000 µM | Vmax ([7]; Table 3, from 2-oxoadipate KM experiments): 0.036 µmol/min/mg | Km ([7]; purified enzyme): 1400 ± 250 µM | maximal velocity (Vmax) ([7]; purified enzyme): 0.020±0.0027 U | Km ([8]; Table 3, 15 mM 2-oxoadipate, 20 mM MgCl2, pH 7.3, 25° C.): 88 µM | Km ([8]; purified enzyme): 85 ± 21 µM | pH optimum ([9]; HEPES buffer at various pH, standard conditions): 7.4 | pH optimum ([9]; Table 3, HEPES buffer): 7.4 | NADH oxidation rate in the presence of 15 mM 2-oxoheptanedioic acid [10]: < 0.001 U | stimulation by addition of NaHCO3 ([2]; up to 60 mM NaHCO3): not stimulated | concentration of (R)-2-hydroxyadipate after 10 h [3]: 0.97 mM | Enantiomeric Excess ([3]; Table 3, (R)-2-hydroxyadipate product): > 99.1%

rate of NADH oxidation in the presence of 2-oxoadipate ([5]; ScHIDH): < 0.001 U
B3: ScHIDH-WT: wild type Saccharomyces cerevisiae homoisocitrate dehydrogenase (encoded by LYS12) (protein, listed as Saccharomyces cerevisiae)
chain: MFRSVATRLSACRGLASNAARKSLTIGLIPGDGIGKEVIPAGKQVLENLNSKHGLSFNFIDLYAGFQTFQETGKALPDETVKVLKEQCQGALFGAVQSPTTKVEGYSSPIVALRREMGLFANVRPVKSVEGEKGKPIDMVIVRENTEDLYIKIEKTYIDKATGTRVADATKRISEIATRRIATIALDIALKRLQTRGQATLTVTHKSNVLSQSDGLFREICKEVYESNKDKYGQIKYNEQIVDSMVYRLFREPQCFDVIVAPNLYGDILSDGAAALVGSLGVVPSANVGPEIVIGEPCHGSAPDIAGKGIANPIATIRSTALMLEFLGHNEAAQDIYKAVDANLREGSIKTPDLGGKASTQQVVDDVLSRL
Km [11]: 16300 µM | rate for homoisocitrate relative to isocitrate [12]: 216 fold | rate of NADH oxidation when CO2 was added as HCO3 ([2]; ScHIDH, 2-oxoadipate, NADH): 0.061±0.0090 U | Km ([2]; ScHIDH, read-out: KM,HCO3): 10000 ± 3700 µM | concentration of (R)-2-hydroxyadipate after 10 h [3]: no 2-hydroxyadipate accumulation was observed
